From the supplement of paper PMC9112550, “Optimization of the antimicrobial peptide Bac7 by deep mutational scanning” (BMC Biology, 2022)

Test system: Escherichia coli TOP10
Assay: shrunken log2 fold change of peptide-encoding DNA abundance (4.5 h post-induction vs induction); higher = less antimicrobial activity (less host growth inhibition)
Conditions: time post-induction: 4.5 h; library: site-saturation at positions 5, 18, 19, 20
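Note: peptides expressed intracellularly from a pBAD plasmid library in pooled LB shake-flask culture, induced with 0.3% L-arabinose, DNA abundance read by NGS, three biological replicates, DESeq2 with apeglm shrinkage.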

Sequence	shrunken log2 fold change
RRIRTRPPRLPRPRPRPCHFPRP	-0.387
RRIRMRPPRLPRPRPRPLKVPRP	0.153
RRIRTRPPRLPRPRPRPCSRPRP	-0.182
RRIRKRPPRLPRPRPRPILDPRP	0.15
RRIRYRPPRLPRPRPRPWSSPRP	0.0132
RRIRIRPPRLPRPRPRPMVFPRP	-0.263
RRIRHRPPRLPRPRPRPPKNPRP	-0.0129
RRIRVRPPRLPRPRPRPWYYPRP	0.0171
RRIRFRPPRLPRPRPRPMRVPRP	0.973
RRIRQRPPRLPRPRPRPHNIPRP	-0.076
RRIRRRPPRLPRPRPRPHISPRP	-0.0794
RRIRMRPPRLPRPRPRPYLNPRP	0.00358
RRIRERPPRLPRPRPRPTAGPRP	0.161
RRIRSRPPRLPRPRPRPKRIPRP	-0.275
RRIRCRPPRLPRPRPRPMLVPRP	-0.144
RRIRNRPPRLPRPRPRPFMTPRP	-0.429
RRIRGRPPRLPRPRPRPPYTPRP	0.145
RRIRDRPPRLPRPRPRPDPFPRP	-0.00228
RRIRQRPPRLPRPRPRPDRRPRP	0.00167
RRIRHRPPRLPRPRPRPQVNPRP	-0.273
RRIRMRPPRLPRPRPRPICQPRP	3.43
RRIRCRPPRLPRPRPRPDEKPRP	0.118
RRIRCRPPRLPRPRPRPIFPPRP	0.247
RRIRPRPPRLPRPRPRPPIQPRP	0.00728
RRIRNRPPRLPRPRPRPTSEPRP	0.194

Sequence	shrunken log2 fold change
RRIRMRPPRLPRPRPRPGKFPRP	0.0419
RRIRMRPPRLPRPRPRPSQLPRP	-0.0454
RRIRVRPPRLPRPRPRPNSCPRP	-0.394
RRIRWRPPRLPRPRPRPYKHPRP	-1.24
RRIRYRPPRLPRPRPRPEIIPRP	-0.0841
RRIRNRPPRLPRPRPRPSVFPRP	-0.342
RRIRQRPPRLPRPRPRPMGNPRP	-0.136
RRIRSRPPRLPRPRPRPNGQPRP	0.0535
RRIRIRPPRLPRPRPRPYNIPRP	-0.257
RRIRLRPPRLPRPRPRPESMPRP	0.191
RRIRERPPRLPRPRPRPRWLPRP	0.108
RRIRYRPPRLPRPRPRPTRWPRP	0.211
RRIRRRPPRLPRPRPRPWDRPRP	0.26
RRIRPRPPRLPRPRPRPDLYPRP	-0.153
RRIRNRPPRLPRPRPRPTRGPRP	0.725
RRIRHRPPRLPRPRPRPIEAPRP	-0.131
RRIRLRPPRLPRPRPRPLGEPRP	0.013
RRIRTRPPRLPRPRPRPMNLPRP	-0.348
RRIRMRPPRLPRPRPRPCKQPRP	0.0203
RRIRCRPPRLPRPRPRPTFWPRP	0.174
RRIRRRPPRLPRPRPRPNEIPRP	-0.0559
RRIRNRPPRLPRPRPRPSWIPRP	-0.425
RRIRYRPPRLPRPRPRPIKYPRP	-0.0893
RRIRHRPPRLPRPRPRPNHSPRP	-0.785
RRIRLRPPRLPRPRPRPCNSPRP	0.165

Sequence	shrunken log2 fold change
RRIRNRPPRLPRPRPRPNSGPRP	-0.0638
RRIRPRPPRLPRPRPRPMSMPRP	-0.11
RRIRTRPPRLPRPRPRPYPYPRP	-0.0787
RRIRKRPPRLPRPRPRPLTSPRP	0.0205
RRIRPRPPRLPRPRPRPCHLPRP	-0.148
RRIRFRPPRLPRPRPRPMSTPRP	-0.386
RRIRIRPPRLPRPRPRPDCSPRP	0.0951
RRIRLRPPRLPRPRPRPHTFPRP	-0.0496
RRIRERPPRLPRPRPRPRRNPRP	-0.0448
RRIRNRPPRLPRPRPRPREGPRP	0.187
RRIRDRPPRLPRPRPRPPKSPRP	0.555
RRIRYRPPRLPRPRPRPQMQPRP	-0.794
RRIRGRPPRLPRPRPRPDAIPRP	1.38
RRIRHRPPRLPRPRPRPGNLPRP	-0.0177
RRIRPRPPRLPRPRPRPGVSPRP	-0.0412
RRIRFRPPRLPRPRPRPTLHPRP	-0.0536
RRIRDRPPRLPRPRPRPVMVPRP	0.111
RRIRNRPPRLPRPRPRPENMPRP	-0.262
RRIRERPPRLPRPRPRPSWYPRP	-1
RRIRSRPPRLPRPRPRPTVKPRP	-0.188
RRIRRRPPRLPRPRPRPPFRPRP	0.631
RRIRARPPRLPRPRPRPFEWPRP	-0.0571
RRIRSRPPRLPRPRPRPEPPPRP	0.662
RRIRQRPPRLPRPRPRPHPMPRP	-0.185
RRIRDRPPRLPRPRPRPHRPPRP	0.0369

Sequence	shrunken log2 fold change
RRIRTRPPRLPRPRPRPNKRPRP	-0.265
RRIRARPPRLPRPRPRPIHMPRP	0.0203
RRIRFRPPRLPRPRPRPNVWPRP	0.0725
RRIRNRPPRLPRPRPRPCPNPRP	-0.344
RRIRSRPPRLPRPRPRPFFDPRP	0.192
RRIRDRPPRLPRPRPRPHNRPRP	-0.00159
RRIRKRPPRLPRPRPRPHCPPRP	-0.00424
RRIRTRPPRLPRPRPRPKQLPRP	0.23
RRIRQRPPRLPRPRPRPADMPRP	-0.0927
RRIRIRPPRLPRPRPRPYYCPRP	-0.529
RRIRNRPPRLPRPRPRPCANPRP	0.0435
RRIRVRPPRLPRPRPRPFTLPRP	-0.104
RRIRQRPPRLPRPRPRPAEYPRP	0.0734
RRIRCRPPRLPRPRPRPNFNPRP	-0.372
RRIRFRPPRLPRPRPRPSPTPRP	0.313
RRIRTRPPRLPRPRPRPQMSPRP	0.056
RRIRGRPPRLPRPRPRPMSHPRP	0.225
RRIRARPPRLPRPRPRPSQDPRP	0.196
RRIRKRPPRLPRPRPRPKVMPRP	0.0802
RRIRTRPPRLPRPRPRPLHQPRP	0.0302
RRIRLRPPRLPRPRPRPGQKPRP	-0.00989
RRIRLRPPRLPRPRPRPCDWPRP	0.201
RRIRCRPPRLPRPRPRPWKDPRP	0.00196
RRIRVRPPRLPRPRPRPLYEPRP	-0.168
RRIRCRPPRLPRPRPRPTHRPRP	0.426

Sequence	shrunken log2 fold change
RRIRMRPPRLPRPRPRPDIFPRP	0.118
RRIRKRPPRLPRPRPRPVFWPRP	0.666
RRIRERPPRLPRPRPRPYWMPRP	-0.438
RRIRSRPPRLPRPRPRPKQIPRP	0.0712
RRIRLRPPRLPRPRPRPCIFPRP	-0.463
RRIRQRPPRLPRPRPRPCWYPRP	-0.261
RRIRLRPPRLPRPRPRPKKAPRP	-0.0389
RRIRLRPPRLPRPRPRPGMGPRP	0.241
RRIRQRPPRLPRPRPRPLRFPRP	-0.041
RRIRFRPPRLPRPRPRPGMDPRP	-0.25
RRIRKRPPRLPRPRPRPIVCPRP	-0.00674
RRIRCRPPRLPRPRPRPVQYPRP	-0.203
RRIRARPPRLPRPRPRPIGVPRP	0.892
RRIRSRPPRLPRPRPRPDMQPRP	-0.00211
RRIRQRPPRLPRPRPRPKFEPRP	-0.0683
RRIRRRPPRLPRPRPRPQGPPRP	0.206
RRIRYRPPRLPRPRPRPAWHPRP	-0.249
RRIRLRPPRLPRPRPRPQMRPRP	0.64
RRIRRRPPRLPRPRPRPKMRPRP	0.733
RRIRQRPPRLPRPRPRPVVAPRP	0.174
RRIRVRPPRLPRPRPRPKLVPRP	0.194
RRIRTRPPRLPRPRPRPWMQPRP	-0.0757
RRIRGRPPRLPRPRPRPGNMPRP	-0.0382
RRIRWRPPRLPRPRPRPHIVPRP	-0.102
RRIRARPPRLPRPRPRPQDRPRP	-0.139

Sequence	shrunken log2 fold change
RRIRFRPPRLPRPRPRPFYVPRP	-0.417
RRIRGRPPRLPRPRPRPVQEPRP	0.873
RRIRFRPPRLPRPRPRPCVTPRP	-0.492
RRIRYRPPRLPRPRPRPSLQPRP	-0.126
RRIRFRPPRLPRPRPRPKIVPRP	-0.207
RRIRQRPPRLPRPRPRPDDIPRP	-0.0246
RRIRWRPPRLPRPRPRPKRHPRP	0.467
RRIRKRPPRLPRPRPRPNYPPRP	-0.175
RRIRCRPPRLPRPRPRPTDQPRP	0.38
RRIRFRPPRLPRPRPRPHIQPRP	-0.594
RRIRTRPPRLPRPRPRPCISPRP	-0.503
RRIRCRPPRLPRPRPRPDQWPRP	-0.197
RRIRQRPPRLPRPRPRPNYRPRP	0.0444
RRIRSRPPRLPRPRPRPAFLPRP	-0.0125
RRIRIRPPRLPRPRPRPNTTPRP	-0.357
RRIRSRPPRLPRPRPRPRNVPRP	0.0864
RRIRSRPPRLPRPRPRPVPTPRP	0.105
RRIRDRPPRLPRPRPRPGMAPRP	0.22
RRIRHRPPRLPRPRPRPRAVPRP	0.518
RRIRCRPPRLPRPRPRPWPPPRP	1.08
RRIRSRPPRLPRPRPRPSKRPRP	-0.126
RRIRVRPPRLPRPRPRPRAIPRP	1.97
RRIRQRPPRLPRPRPRPLSNPRP	-0.109
RRIRWRPPRLPRPRPRPCSPPRP	-0.106
RRIRPRPPRLPRPRPRPTHVPRP	0.317
